Reference: article PMC11568366, “Phosphorylation of cytochrome c at tyrosine 48 finely regulates its binding to the histone chaperone SET/TAF‐Iβ in the nucleus” (Protein Science : A Publication of the Protein Society, 2024)

Assays:
[1] = biological target: T1, SET/template-activating factor Iβ (SET/TAF-Iβ), recombinant (UniProt Q01105-2 1-277); assay: ITC; 300 μM reduced Cc injected (17 x 2.91 μL) into 30 μM SET/TAF-Iβ (as homodimer) in the cell, 25°C, 10 mM sodium phosphate pH 7.4; WT fitted with two cooperative binding sites, mutants with independent binding sites; settings: both partners purified
T1 construct: SET/TAF-Iβ, the beta isoform of SET; construct in pET28a(+) from González-Arzola et al. 2015; Concentration is expressed as the functional homodimer

[2] = biological target: T1, SET/template-activating factor Iβ …; assay: as above; settings: both partners purified; remark: listed apart in the source

T1 sequence (Q01105 other isoform, or with tags, fused parts or gaps): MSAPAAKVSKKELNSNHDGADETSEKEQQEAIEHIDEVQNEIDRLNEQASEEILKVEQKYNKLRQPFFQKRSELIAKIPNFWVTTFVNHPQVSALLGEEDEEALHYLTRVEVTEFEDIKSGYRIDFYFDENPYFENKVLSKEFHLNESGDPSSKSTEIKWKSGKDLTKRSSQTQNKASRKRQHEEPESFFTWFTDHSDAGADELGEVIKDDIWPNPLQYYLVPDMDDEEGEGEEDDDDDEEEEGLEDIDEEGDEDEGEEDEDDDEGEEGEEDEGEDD

| dH1 (first site) [1] [kcal/mol] | dH2 (second site) [1] [kcal/mol] | stoichiometry N [2] | Kd [1] [µM] | dH [1] [kcal/mol] | stoichiometry N [1] | Binder |
| --- | --- | --- | --- | --- | --- | --- |
| 1.3 | 6.9 | 2 Cc per SET/TAF-Iβ homodimer | – | – | – | wild-type cytochrome c (reduced) (natural protein, cytochrome c, human; Hemeprotein, kept reduced with sodium ascorbate in ITC and NMR; Construct and expression as in cited earlier work (Moreno-Beltrán et al. 2015; Olteanu et al. 2003); also called WT Cc; Cc) not shown |
| – | – | – | 22 | -7.5 | 2.2 | Y48D cytochrome c phosphomimetic mutant (reduced) (natural protein, cytochrome c, human; Hemeprotein, reduced in ITC; also called Y48D Cc) not shown |
| – | – | – | 110 | -19 | 2.3 | Y48E cytochrome c phosphomimetic mutant (reduced) (natural protein, cytochrome c, human; Hemeprotein, reduced in ITC; also called Y48E Cc) not shown |
